Measurements as given in patent US20180256687A1.
Read-outs that look alike come from different tables or passages of the source. Blank lines part the entries; values can stand above or below the substance they belong to.

How the values were obtained:
[1] = molecular target: Protein tyrosine phosphatase receptor type gamma (PTPRG) (human) (UniProt P23470); assay: cell-based or functional assay
[2] = molecular target: PTP Receptor type C (PTPRC or CD45) (human) (UniProt P08575); assay: cell-based or functional assay
[3] = molecular target: JAK2 (Janus protein-tyrosine kinase 2) (human) (UniProt O60674)
[4] = molecular target: JAK2 (Janus protein-tyrosine kinase 2) (human) (UniProt O60674); assay: negative-control pull-down on nickel gel; lysate of resting human monocytes; mean of 3 experiments

Chain of PTP Receptor type C (PTPRC or CD45) (human) (P08575 26-1306 limits assumed): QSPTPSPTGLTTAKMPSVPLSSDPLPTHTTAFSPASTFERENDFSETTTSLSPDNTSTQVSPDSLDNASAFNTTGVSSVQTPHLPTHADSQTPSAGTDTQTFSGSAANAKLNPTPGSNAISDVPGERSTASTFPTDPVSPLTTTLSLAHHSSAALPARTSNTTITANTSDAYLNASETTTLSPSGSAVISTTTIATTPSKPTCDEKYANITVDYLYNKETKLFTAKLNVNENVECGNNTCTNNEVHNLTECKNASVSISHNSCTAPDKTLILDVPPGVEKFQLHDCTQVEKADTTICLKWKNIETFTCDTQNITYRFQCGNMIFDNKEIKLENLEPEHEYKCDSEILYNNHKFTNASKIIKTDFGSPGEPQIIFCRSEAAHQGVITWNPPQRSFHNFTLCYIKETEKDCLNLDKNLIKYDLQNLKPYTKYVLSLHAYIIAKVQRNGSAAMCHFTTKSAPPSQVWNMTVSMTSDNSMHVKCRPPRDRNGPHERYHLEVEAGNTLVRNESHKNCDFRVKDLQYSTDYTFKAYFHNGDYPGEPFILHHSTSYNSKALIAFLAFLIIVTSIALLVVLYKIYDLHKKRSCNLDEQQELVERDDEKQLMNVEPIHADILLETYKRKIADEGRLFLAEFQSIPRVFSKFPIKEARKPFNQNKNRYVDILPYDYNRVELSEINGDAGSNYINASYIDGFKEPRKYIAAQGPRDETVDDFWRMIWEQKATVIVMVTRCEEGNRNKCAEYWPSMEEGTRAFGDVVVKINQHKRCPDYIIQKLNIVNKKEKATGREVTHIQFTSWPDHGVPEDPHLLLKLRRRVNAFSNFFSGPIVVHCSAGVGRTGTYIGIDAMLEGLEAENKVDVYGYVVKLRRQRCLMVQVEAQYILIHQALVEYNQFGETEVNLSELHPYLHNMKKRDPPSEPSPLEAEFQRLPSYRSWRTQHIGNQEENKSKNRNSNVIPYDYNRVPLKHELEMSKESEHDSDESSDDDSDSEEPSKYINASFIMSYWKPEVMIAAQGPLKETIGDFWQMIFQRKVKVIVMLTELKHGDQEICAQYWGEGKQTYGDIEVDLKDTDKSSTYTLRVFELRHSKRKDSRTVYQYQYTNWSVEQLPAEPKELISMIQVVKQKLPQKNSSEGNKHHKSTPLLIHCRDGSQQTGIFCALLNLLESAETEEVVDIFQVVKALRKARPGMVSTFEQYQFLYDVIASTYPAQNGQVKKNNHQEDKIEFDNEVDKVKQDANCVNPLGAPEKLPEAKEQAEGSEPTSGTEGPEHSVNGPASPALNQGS

phosphatase activity (pNPP, absorbance at 405 nm, percent fold increase over the blank) in monocyte membrane fractions, P1 control (percent fold increase over the blank) [1]: 16
Substance: P1 (Penetratin 1) control peptide

phosphatase activity (pNPP, absorbance at 405 nm, percent fold increase over the blank) in monocyte membrane fractions, P1-WD 50 micromolar (percent fold increase over the blank) [1]: 34.6
phosphatase activity (pNPP, absorbance at 405 nm, percent fold increase over the blank) in monocyte membrane fractions, P1-WD 100 micromolar (percent fold increase over the blank) [1]: 86.7
phosphatase activity (pNPP, absorbance at 405 nm, percent fold increase over the blank) in monocyte membrane fractions, P1-WD 200 micromolar (percent fold increase over the blank) [1]: 109
phosphatase activity (pNPP, absorbance at 405 nm, percent fold increase over the blank) in PMN membrane fractions, P1-WD 50 micromolar (percent fold increase over the blank) [2]: 5.15
phosphatase activity (pNPP, absorbance at 405 nm, percent fold increase over the blank) in PMN membrane fractions, P1-WD 100 micromolar (percent fold increase over the blank) [2]: 8.54
phosphatase activity (pNPP, absorbance at 405 nm, percent fold increase over the blank) in PMN membrane fractions, P1-WD 200 micromolar (percent fold increase over the blank) [2]: 12.9
Substance: P1-WD Trojan peptide (Penetratin fused to the PTPRG wedge domain)

Substance: TAT-eGFP
JAK2 band (anti-JAK2 Western blot of pull-down), mean [3]: 1.5
JAK2 band (anti-JAK2 Western blot of pull-down), mean [4]: 4.4
